{
  "source": "patent US20250313631A1",
  "about": "(HUMMINGBIRD BIOSCIENCE PTE, published 2025)",
  "key": {"[1]": {"biological_target": "T1, mouse FcRn (His-tagged, Sino Biological CT009-H08H) (mouse, UniProt Q61559 22-297)", "T1 construct": "also called mFcRn", "T1 sequence (looked up)": "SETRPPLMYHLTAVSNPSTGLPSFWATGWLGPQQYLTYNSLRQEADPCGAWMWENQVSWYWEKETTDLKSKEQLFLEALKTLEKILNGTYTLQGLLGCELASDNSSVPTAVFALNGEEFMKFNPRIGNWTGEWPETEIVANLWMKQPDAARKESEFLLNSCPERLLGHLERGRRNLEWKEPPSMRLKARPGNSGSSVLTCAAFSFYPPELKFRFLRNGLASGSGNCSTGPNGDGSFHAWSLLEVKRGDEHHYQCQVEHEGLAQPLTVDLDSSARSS", "test": "BLI (Octet QK384): His-tagged mFcRn on anti-Penta-HIS biosensor, antibody as analyte, PBS pH 5.8, global 1:1 fit; experiment 2"}, "[2]": {"biological_target": "T2, mouse FcγRIV (His-tagged, Sino Biological 50036-M08H) (mouse, UniProt A0A0B4J1G0 21-203)", "T2 construct": "also called mFcγRIV; not shown: the histidine tag (and any linker) of the Sino Biological construct 50036-M08H", "T2 sequence": "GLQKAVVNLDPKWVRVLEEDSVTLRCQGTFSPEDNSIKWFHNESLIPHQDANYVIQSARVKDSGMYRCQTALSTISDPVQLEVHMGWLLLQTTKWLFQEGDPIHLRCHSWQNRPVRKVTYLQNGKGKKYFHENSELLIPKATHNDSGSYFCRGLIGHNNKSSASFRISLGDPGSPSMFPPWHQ", "test": "BLI (Octet QK384): His-tagged receptor on anti-Penta-HIS biosensor, antibody as analyte, PBS pH 7.2, global 1:1 fit; experiment 2"}, "[3]": {"biological_target": "T3, mouse FcγRIII (His-tagged, Sino Biological 50326-M08H) (mouse, UniProt P08508 31-215)", "T3 construct": "also called mFcγRIII", "T3 sequence (looked up)": "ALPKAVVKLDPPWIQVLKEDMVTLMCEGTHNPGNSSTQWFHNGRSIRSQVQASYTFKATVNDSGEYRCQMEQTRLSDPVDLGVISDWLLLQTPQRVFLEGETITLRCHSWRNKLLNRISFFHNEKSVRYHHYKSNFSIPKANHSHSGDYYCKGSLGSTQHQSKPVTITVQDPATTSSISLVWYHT", "test": "BLI summary table, mFcgRIII, pH 7.2"}, "[4]": {"biological_target": "T3, mouse FcγRIII (His-tagged, Sino …)", "test": "BLI (Octet QK384): His-tagged receptor on anti-Penta-HIS biosensor, antibody as analyte, PBS pH 7.2, global 1:1 fit; experiment 2"}, "[5]": {"biological_target": "T1, mouse FcRn (His-tagged, Sino Biological …)", "test": "BLI summary table, mFcRn, pH 5.8"}, "[6]": {"biological_target": "T1, mouse FcRn (His-tagged, Sino Biological …)", "test": "BLI summary table, mFcRn, pH 5.8", "remark": "listed apart in the source"}, "[7]": {"biological_target": "T3, mouse FcγRIII (His-tagged, Sino …)", "test": "BLI summary table, mFcgRIII, pH 7.2", "remark": "listed apart in the source"}, "[8]": {"biological_target": "T2, mouse FcγRIV (His-tagged, Sino …)", "test": "BLI summary table, mFcgRIV, pH 7.2"}, "[9]": {"biological_target": "T4, mouse FcγRIIb (His-tagged, Sino Biological 50030-M08H) (mouse, UniProt P08101 30-217)", "T4 construct": "also called mFcγRIIb", "T4 sequence (looked up)": "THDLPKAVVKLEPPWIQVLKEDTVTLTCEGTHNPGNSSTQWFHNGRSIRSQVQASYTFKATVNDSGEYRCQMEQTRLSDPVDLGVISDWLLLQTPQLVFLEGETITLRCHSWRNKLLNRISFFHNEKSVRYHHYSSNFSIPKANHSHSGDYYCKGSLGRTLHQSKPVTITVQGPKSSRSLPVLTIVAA", "test": "BLI summary table, mFcgRIIb, pH 7.2"}, "[10]": {"biological_target": "T1, mouse FcRn (His-tagged, Sino Biological …)", "test": "BLI summary table, mFcRn, pH 5.8", "remark": "listed apart in the source"}, "[11]": {"biological_target": "T2, mouse FcγRIV (His-tagged, Sino …)", "test": "BLI summary table, mFcgRIV, pH 7.2", "remark": "listed apart in the source"}, "[12]": {"biological_target": "T3, mouse FcγRIII (His-tagged, Sino …)", "test": "BLI summary table, mFcgRIII, pH 7.2", "remark": "listed apart in the source"}, "[13]": {"biological_target": "T4, mouse FcγRIIb (His-tagged, Sino …)", "test": "BLI summary table, mFcgRIIb, pH 7.2", "remark": "listed apart in the source"}, "[14]": {"biological_target": "T4, mouse FcγRIIb (His-tagged, Sino …)", "test": "BLI (Octet QK384): His-tagged receptor on anti-Penta-HIS biosensor, antibody as analyte, PBS pH 7.2, global 1:1 fit; experiment 2"}, "[15]": {"biological_target": "T4, mouse FcγRIIb (His-tagged, Sino …)", "test": "BLI summary table, mFcgRIIb, pH 7.2", "remark": "listed apart in the source"}, "[16]": {"biological_target": "T2, mouse FcγRIV (His-tagged, Sino …)", "test": "BLI summary table, mFcgRIV, pH 7.2", "remark": "listed apart in the source"}, "[17]": {"biological_target": "T3, mouse FcγRIII (His-tagged, Sino …)", "test": "BLI (Octet QK384): His-tagged receptor on anti-Penta-HIS biosensor, antibody as analyte, PBS pH 7.2, global 1:1 fit"}, "[18]": {"biological_target": "T4, mouse FcγRIIb (His-tagged, Sino …)", "test": "BLI (Octet QK384): His-tagged receptor on anti-Penta-HIS biosensor, antibody as analyte, PBS pH 7.2, global 1:1 fit"}, "[19]": {"biological_target": "T1, mouse FcRn (His-tagged, Sino Biological …)", "test": "BLI (Octet QK384): His-tagged mFcRn on anti-Penta-HIS biosensor, antibody as analyte, PBS pH 5.8, global 1:1 fit"}, "[20]": {"biological_target": "T2, mouse FcγRIV (His-tagged, Sino …)", "test": "BLI (Octet QK384): His-tagged receptor on anti-Penta-HIS biosensor, antibody as analyte, PBS pH 7.2"}},
  "note": "Values joined by “and” are separate entries in the source; they are usually repeats but may differ in a detail not shown here. Equal values may be shown once.",
  "data": [
    {"binder": "4M2-C12 mIgG2a (antibody, mouse IgG2a format, made in CHO cells; also called 4M2-C12 IgG2a) heavy: EVKLVESGPGLVKPSQSLSLTCTVTGYSITSDYAWNWIRQFPGNKLEWMGYITYSGNISYNPSLRSRISITRDTSKNQFFLQLNSVTPEDTATYSCARSLYYPWYFDVWGAGTTVTVSSAKTTAPSVYPLAPVCGDTTGSSVTLGCLVKGYFPEPVTLTWNSGSLSSGVHTFPAVLQSDLYTLSSSVTVTSSTWPSQSITCNVAHPASSTKVDKKIEPRGPTIKPCPPCKCPAPNLLGGPSVFIFPPKIKDVLMISLSPIVTCVVVDVSEDDPDVQISWFVNNVEVHTAQTQTHREDYNSTLRVVSALPIQHQDWMSGKEFKCKVNNKDLPAPIERTISKPKGSVRAPQVYVLPPPEEEMTKKQVTLTCMVTDFMPEDIYVEWTNNGKTELNYKNTEPVLDSDGSYFMYSKLRVEKKNWVERNSYSCSVVHEGLHNHHTTKSFSRTPGK light: DIVITQTPAILSTSPGEKVTMTCRASSSVGYIHWYQQKPGSSPKPWIYATSNLASGVPARFSGSGSGTSNSLTITRVEAEDAATYYCQQWSSYPPITFGGGTKLEVKRADAAPTVSIFPPSSEQLTSGGASVVCFLNNFYPKDINVKWKIDGSERQNGVLNSWTDQDSKDSTYSMSSTLTLTKDEYERHNSYTCEATHKTSTSPIVKSFNRNEC", "values": [
      {"measurement": "Kd", "setting": "[1]", "result": 49.6, "unit": "nM"},
      {"measurement": "koff", "setting": "[1]", "result": 0.011, "unit": "s⁻¹"},
      {"measurement": "kon", "setting": "[1]", "result": 220000, "unit": "M⁻¹ s⁻¹"},
      {"measurement": "Kd", "setting": "[2]", "result": 372, "unit": "nM"},
      {"measurement": "koff", "setting": "[2]", "result": 0.034, "unit": "s⁻¹"},
      {"measurement": "kon", "setting": "[2]", "result": 92000, "unit": "M⁻¹ s⁻¹"},
      {"measurement": "Kd", "setting": "[3]", "result": "794 nM and 977 nM"},
      {"measurement": "Kd", "setting": "[4]", "result": 977, "unit": "nM"},
      {"measurement": "koff", "setting": "[4]", "result": 0.066, "unit": "s⁻¹"},
      {"measurement": "kon", "setting": "[4]", "result": 67000, "unit": "M⁻¹ s⁻¹"},
      {"measurement": "Kd", "setting": "[5]", "result": "31.5 nM and 49.5 nM"},
      {"measurement": "kon", "setting": "[6]", "result": "190000 M⁻¹ s⁻¹ and 220000 M⁻¹ s⁻¹"},
      {"measurement": "kon", "setting": "[7]", "result": "55000 M⁻¹ s⁻¹ and 67000 M⁻¹ s⁻¹"},
      {"measurement": "Kd", "setting": "[8]", "result": "258 nM and 372 nM"},
      {"measurement": "koff", "setting": "[9]", "result": "0.045 s⁻¹ and 0.12 s⁻¹"},
      {"measurement": "koff", "setting": "[10]", "result": "0.0059 s⁻¹ and 0.011 s⁻¹"},
      {"measurement": "kon", "setting": "[11]", "result": "96000 M⁻¹ s⁻¹ and 92000 M⁻¹ s⁻¹"},
      {"measurement": "koff", "setting": "[12]", "result": "0.044 s⁻¹ and 0.066 s⁻¹"},
      {"measurement": "kon", "setting": "[13]", "result": "51000 M⁻¹ s⁻¹ and 55000 M⁻¹ s⁻¹"},
      {"measurement": "Kd", "setting": "[14]", "result": 2190, "unit": "nM"},
      {"measurement": "koff", "setting": "[14]", "result": 0.12, "unit": "s⁻¹"},
      {"measurement": "kon", "setting": "[14]", "result": 55000, "unit": "M⁻¹ s⁻¹"},
      {"measurement": "Kd", "setting": "[15]", "result": "876 nM and 2190 nM"},
      {"measurement": "koff", "setting": "[16]", "result": "0.025 s⁻¹ and 0.034 s⁻¹"}
    ]},
    {"binder": "4M2-C12 mIgG1 (antibody) heavy chain: EVKLVESGPGLVKPSQSLSLTCTVTGYSITSDYAWNWIRQFPGNKLEWMGYITYSGNISYNPSLRSRISITRDTSKNQFFLQLNSVTPEDTATYSCARSLYYPWYFDVWGAGTTVTVSSAKTTPPSVYPLAPGSAAQTNSMVTLGCLVKGYFPEPVTVTWNSGSLSSGVHTFPAVLQSDLYTLSSSVTVPSSTWPSETVTCNVAHPASSTKVDKKIVPRDCGCKPCICTVPEVSSVFIFPPKPKDVLTITLTPKVTCVVVDISKDDPEVQFSWFVDDVEVHTAQTQPREEQFNSTFRSVSELPIMHQDWLNGKEFKCRVNSAAFPAPIEKTISKTKGRPKAPQVYTIPPPKEQMAKDKVSLTCMITDFFPEDITVEWQWNGQPAENYKNTQPIMNTNGSYFVYSKLNVQKSNWEAGNTFTCSVLHEGLHNHHTEKSLSHSPGK light chain: DIVITQTPAILSTSPGEKVTMTCRASSSVGYIHWYQQKPGSSPKPWIYATSNLASGVPARFSGSGSGTSNSLTITRVEAEDAATYYCQQWSSYPPITFGGGTKLEVKRADAAPTVSIFPPSSEQLTSGGASVVCFLNNFYPKDINVKWKIDGSERQNGVLNSWTDQDSKDSTYSMSSTLTLTKDEYERHNSYTCEATHKTSTSPIVKSFNRNEC", "values": [
      {"measurement": "Kd", "setting": "[17]", "result": 455, "unit": "nM"},
      {"measurement": "koff", "setting": "[17]", "result": 0.125, "unit": "s⁻¹"},
      {"measurement": "kon", "setting": "[17]", "result": 270000, "unit": "M⁻¹ s⁻¹"},
      {"measurement": "Kd", "setting": "[18]", "result": 1300, "unit": "nM"},
      {"measurement": "koff", "setting": "[18]", "result": 0.117, "unit": "s⁻¹"},
      {"measurement": "kon", "setting": "[18]", "result": 90000, "unit": "M⁻¹ s⁻¹"},
      {"measurement": "Kd", "setting": "[19]", "result": 93.9, "unit": "nM"},
      {"measurement": "koff", "setting": "[19]", "result": 0.016, "unit": "s⁻¹"},
      {"measurement": "kon", "setting": "[19]", "result": 170000, "unit": "M⁻¹ s⁻¹"},
      {"measurement": "Kd", "setting": "[3]", "result": 455, "unit": "nM"},
      {"measurement": "binding result", "setting": "[20]", "result": "no binding"},
      {"measurement": "Kd", "setting": "[5]", "result": 93.9, "unit": "nM"},
      {"measurement": "kon", "setting": "[6]", "result": 170000, "unit": "M⁻¹ s⁻¹"},
      {"measurement": "kon", "setting": "[7]", "result": 270000, "unit": "M⁻¹ s⁻¹"},
      {"measurement": "koff", "setting": "[9]", "result": 0.117, "unit": "s⁻¹"},
      {"measurement": "koff", "setting": "[10]", "result": 0.016, "unit": "s⁻¹"},
      {"measurement": "koff", "setting": "[12]", "result": 0.125, "unit": "s⁻¹"},
      {"measurement": "kon", "setting": "[13]", "result": 90000, "unit": "M⁻¹ s⁻¹"},
      {"measurement": "Kd", "setting": "[15]", "result": 1300, "unit": "nM"}
    ]}
  ]
}
